This note sets out measurements from PMC9569990 (International Journal of Molecular Sciences, 2022).

Holding throughout (assay): SPR; cytokine immobilised on ProteOn GLH sensor chip by amine coupling (9,000-14,000 RU); S100P (wild type or mutant) as analyte, 62 nM-16 µM; 25 °C; 10 mM HEPES, 150 mM NaCl, 1 mM CaCl2, 0.05% TWEEN 20, pH 7.4; heterogeneous ligand model (two ligand populations), one-site model for IL-13; values averaged over analyte concentrations (n = 3-5)
Details in all cases: both partners purified

One assay addresses T1, Interleukin-9 (human, UniProt P15248 19-144).
T1 construct: Interleukin-9, human, UniProt P15248; see the manufacturer's catalogue number; also called IL-9; source: bought: PeproTech (source E. coli)

The next assay has as its target T2, Growth hormone variant (human, UniProt P01242 27-217).
T2 construct: Growth hormone variant, human, UniProt P01242; see the manufacturer's catalogue number; also called GH-V; source: bought: R&D Systems (source E. coli)

Another assay addresses T3, Interleukin-27 (human, UniProt Q8NEV9 29-243; Q14213 21-229).
T3 construct: the chain used for the SCOP family assignment; also called IL-27; source: bought: PeproTech (source HEK293)
T3 sequence (looked up) 1: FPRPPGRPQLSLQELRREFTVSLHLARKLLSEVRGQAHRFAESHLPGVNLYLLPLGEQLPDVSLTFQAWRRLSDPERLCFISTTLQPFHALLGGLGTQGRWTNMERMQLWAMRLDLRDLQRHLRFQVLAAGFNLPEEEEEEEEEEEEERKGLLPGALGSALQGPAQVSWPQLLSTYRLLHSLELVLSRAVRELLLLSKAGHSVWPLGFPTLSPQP
T3 sequence (looked up) 2: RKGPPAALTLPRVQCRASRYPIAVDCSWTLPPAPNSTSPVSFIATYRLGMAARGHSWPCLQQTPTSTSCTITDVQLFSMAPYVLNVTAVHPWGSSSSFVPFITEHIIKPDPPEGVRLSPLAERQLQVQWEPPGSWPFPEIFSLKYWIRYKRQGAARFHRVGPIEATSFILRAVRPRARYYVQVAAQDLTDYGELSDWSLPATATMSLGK

Assay [1] addresses T4, Granulocyte colony-stimulating factor (human, UniProt P09919-2 31-204).
T4 construct: Granulocyte colony-stimulating factor, human, UniProt P09919; No catalogue number (n/a); also called G-CSF; source: bought: Pharmstandard (Russia) (source E. coli)
T4 sequence (looked up): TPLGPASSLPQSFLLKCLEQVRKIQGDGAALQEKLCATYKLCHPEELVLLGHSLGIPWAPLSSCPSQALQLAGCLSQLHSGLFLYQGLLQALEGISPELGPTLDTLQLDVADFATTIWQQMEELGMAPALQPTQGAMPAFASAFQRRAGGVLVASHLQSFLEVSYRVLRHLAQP

The target in the next assay is T5, Prolactin (human, UniProt P01236 29-227).
T5 construct: Prolactin, human, UniProt P01236; see the manufacturer's catalogue number; also called PRL; source: bought: PeproTech (source E. coli)
T5 sequence (looked up): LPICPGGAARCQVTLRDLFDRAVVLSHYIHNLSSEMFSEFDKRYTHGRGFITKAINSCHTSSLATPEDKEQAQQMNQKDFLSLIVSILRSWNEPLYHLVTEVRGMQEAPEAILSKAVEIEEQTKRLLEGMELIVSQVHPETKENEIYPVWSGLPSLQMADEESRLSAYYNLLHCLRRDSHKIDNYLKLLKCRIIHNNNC

The next assay has as its target T6, Interleukin-15 (human, UniProt P40933 49-162).
T6 construct: Interleukin-15, human, UniProt P40933; see the manufacturer's catalogue number; also called IL-15; source: bought: PeproTech (source E. coli)

T1 sequence (P15248 19-144): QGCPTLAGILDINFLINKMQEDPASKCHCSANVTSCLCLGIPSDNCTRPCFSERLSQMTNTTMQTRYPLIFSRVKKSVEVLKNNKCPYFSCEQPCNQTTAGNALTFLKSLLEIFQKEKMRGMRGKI
T6 sequence (P40933 49-162): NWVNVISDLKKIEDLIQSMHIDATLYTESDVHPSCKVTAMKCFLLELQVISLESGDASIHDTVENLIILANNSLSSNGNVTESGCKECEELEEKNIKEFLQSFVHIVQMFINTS
T2 sequence (P01242 27-217, change not shown): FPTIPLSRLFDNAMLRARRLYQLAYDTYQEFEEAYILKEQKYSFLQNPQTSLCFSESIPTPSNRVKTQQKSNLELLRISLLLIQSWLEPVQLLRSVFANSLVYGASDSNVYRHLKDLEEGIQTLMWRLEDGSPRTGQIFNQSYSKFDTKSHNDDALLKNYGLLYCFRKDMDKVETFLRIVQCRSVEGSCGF

B1: Human S100P protein (recombinant, Ca^2+-loaded) (natural protein)
chain: MTELETAMGMIIDVFSRYSGSEGSTQTLTKGELKVLMEKELPGFLQSGKDKDAVDKLLKDLDANGDAQVDFSEFIVFVAAITSACHKYFEKAGLK
notes: S100P protein, human, recombinant; probably the whole 95-residue protein (surmise); also called wild-type S100P; WT S100P; source: E. coli, prepared as previously described [28]
As for B1, the “Kd1 (heterogeneous ligand model, population 1)” value turned out to be 34.7 nM in the assay with Interleukin-9; 1.04 µM in the assay with Growth hormone variant; 859 nM with Interleukin-27; 213 nM in assay [1]; 54.6 nM with Prolactin; 102 nM in the assay with Interleukin-15. Also, the “Kd2 (heterogeneous ligand model, population 2)” value was 136 nM with Interleukin-9; 2.73 µM with Growth hormone variant; 1.69 µM with Interleukin-27; 854 nM in assay [1]; 906 nM in the assay with Prolactin; 980 nM with Interleukin-15. For the same molecule, the “kd1 (heterogeneous ligand model, population 1)” value with Interleukin-9 is 0.000531 s⁻¹; with Growth hormone variant it was 0.00177 s⁻¹; with Interleukin-27, 0.00994 s⁻¹; in assay [1] it was 0.000315 s⁻¹; with Prolactin, 0.000981 s⁻¹; with Interleukin-15 it was 0.00109 s⁻¹. Also, the “kd2 (heterogeneous ligand model, population 2)” value was determined as 0.017 s⁻¹ in the assay with Interleukin-9; 0.0181 s⁻¹ with Growth hormone variant; 0.000357 s⁻¹ in the assay with Interleukin-27; 0.0154 s⁻¹ in assay [1]; 0.0103 s⁻¹ with Prolactin; 0.0272 s⁻¹ with Interleukin-15.
